How the values were obtained:
[1] = target: T1, Tat47-58 peptide (HIV-1 Tat) (HIV-1); experiment: EMSA; TK buffer: 50 mM Tris-HCl pH 7.4, 20 mM KCl, 0.5 mM MgCl2, 0.1% Triton X-100; peptide 0.1-1.6 uM; annealed from 90 C to 24 C; gel at 4 C; details: protein: synthetic; label: 5'-fluorescein, 3'-32P cytidine bisphosphate; hairpin
T1 chain: YGRKKRRQRRRP

[2] = target: T1, Tat47-58 peptide (HIV-1 Tat); experiment: EMSA; capillary electrophoresis mobility shift; TK buffer 0.5 mM MgCl2; peptide 0.1-1.6 mM as printed; details: protein: synthetic; label: 5'-fluorescein; hairpin

B1: HIV-1 TAR RNA oligonucleotide (ssRNA)
RNA: GGCAGAUCUGAGCCUGGGAGCUCUCUGCC
- binding result [1]: binds

B2: HIV-1 TAR RNA oligonucleotide (fluorescein only) (ssRNA)
RNA: GGCAGAUCUGAGCCUGGGAGCUCUCUGCC
- binding result [2]: binds
